Experimental data: PMC6581795, “Phosphorylation of FANCD2 Inhibits the FANCD2/FANCI Complex and Suppresses the Fanconi Anemia Pathway in the Absence of DNA Damage”

How the values were obtained:
FANCD2-6A;FANCI = FANCD2-6A;FANCI (Homo sapiens;Homo sapiens?, UniProt Q9BXW9;Q9NVI1 1-1451;1-1328, S882A;T884A;S886A;S891A;T896A;S898A|); assay: EMSA; untreated; similar to WT; EMSA: 1 nM DNA, 25 mM Tris-HCl pH 7.5, 100 mM NaCl, 1 mM EDTA, 6% glycerol, 1 mM DTT, room temperature 1 h; 4% PAGE 0.4x TBE at 4 C; conditions: protein: recombinant;recombinant; copies: 1;1
FANCD2 WT;FANCI = FANCD2 WT;FANCI (Homo sapiens;Homo sapiens?, UniProt Q9BXW9;Q9NVI1 1-1451;1-1328, |); assay: EMSA; untreated; EMSA: 1 nM DNA, 25 mM Tris-HCl pH 7.5, 100 mM NaCl, 1 mM EDTA, 6% glycerol, 1 mM DTT, room temperature 1 h; 4% PAGE 0.4x TBE at 4 C; conditions: protein: recombinant;recombinant; copies: 1;1
Chain of FANCD2 WT;FANCI (Q9BXW9 whole entry, chain 1 of 2): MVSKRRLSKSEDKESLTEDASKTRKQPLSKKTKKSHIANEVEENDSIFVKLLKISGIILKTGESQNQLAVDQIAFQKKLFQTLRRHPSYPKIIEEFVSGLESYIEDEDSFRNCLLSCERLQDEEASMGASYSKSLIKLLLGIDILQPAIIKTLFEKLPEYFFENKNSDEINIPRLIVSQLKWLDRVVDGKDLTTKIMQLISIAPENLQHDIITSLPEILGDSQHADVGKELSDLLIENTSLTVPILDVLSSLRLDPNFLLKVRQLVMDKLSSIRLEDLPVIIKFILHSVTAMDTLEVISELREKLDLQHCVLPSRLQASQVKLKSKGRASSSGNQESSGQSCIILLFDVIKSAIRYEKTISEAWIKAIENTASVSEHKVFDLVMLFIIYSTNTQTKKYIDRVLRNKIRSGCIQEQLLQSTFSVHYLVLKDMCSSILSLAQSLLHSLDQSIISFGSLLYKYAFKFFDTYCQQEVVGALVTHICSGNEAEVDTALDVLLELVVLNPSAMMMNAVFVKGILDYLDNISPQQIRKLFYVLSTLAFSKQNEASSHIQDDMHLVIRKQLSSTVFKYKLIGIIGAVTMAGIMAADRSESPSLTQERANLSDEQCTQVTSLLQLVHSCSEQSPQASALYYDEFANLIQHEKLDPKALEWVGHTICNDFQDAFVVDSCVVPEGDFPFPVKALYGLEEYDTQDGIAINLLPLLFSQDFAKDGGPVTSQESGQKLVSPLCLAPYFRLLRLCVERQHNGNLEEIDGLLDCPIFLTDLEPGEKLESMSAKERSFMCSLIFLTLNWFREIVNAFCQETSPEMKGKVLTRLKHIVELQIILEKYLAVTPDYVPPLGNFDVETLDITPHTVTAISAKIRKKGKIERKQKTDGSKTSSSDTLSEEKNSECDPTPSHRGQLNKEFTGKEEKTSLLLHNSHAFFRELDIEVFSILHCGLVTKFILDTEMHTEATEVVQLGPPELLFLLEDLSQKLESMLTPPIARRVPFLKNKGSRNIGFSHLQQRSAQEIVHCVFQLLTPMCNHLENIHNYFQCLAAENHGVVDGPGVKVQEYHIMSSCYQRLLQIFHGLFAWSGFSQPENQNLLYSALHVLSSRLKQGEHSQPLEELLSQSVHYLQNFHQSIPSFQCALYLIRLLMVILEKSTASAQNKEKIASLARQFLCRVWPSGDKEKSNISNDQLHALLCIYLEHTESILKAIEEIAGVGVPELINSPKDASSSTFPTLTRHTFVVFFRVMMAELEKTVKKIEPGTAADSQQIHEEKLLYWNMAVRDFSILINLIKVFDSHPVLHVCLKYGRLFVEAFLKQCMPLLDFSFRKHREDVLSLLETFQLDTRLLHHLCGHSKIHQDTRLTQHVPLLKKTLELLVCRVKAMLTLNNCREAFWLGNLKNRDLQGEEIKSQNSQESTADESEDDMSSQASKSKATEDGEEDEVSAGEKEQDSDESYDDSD
Chain of FANCD2 WT;FANCI (Q9NVI1 whole entry, chain 2 of 2): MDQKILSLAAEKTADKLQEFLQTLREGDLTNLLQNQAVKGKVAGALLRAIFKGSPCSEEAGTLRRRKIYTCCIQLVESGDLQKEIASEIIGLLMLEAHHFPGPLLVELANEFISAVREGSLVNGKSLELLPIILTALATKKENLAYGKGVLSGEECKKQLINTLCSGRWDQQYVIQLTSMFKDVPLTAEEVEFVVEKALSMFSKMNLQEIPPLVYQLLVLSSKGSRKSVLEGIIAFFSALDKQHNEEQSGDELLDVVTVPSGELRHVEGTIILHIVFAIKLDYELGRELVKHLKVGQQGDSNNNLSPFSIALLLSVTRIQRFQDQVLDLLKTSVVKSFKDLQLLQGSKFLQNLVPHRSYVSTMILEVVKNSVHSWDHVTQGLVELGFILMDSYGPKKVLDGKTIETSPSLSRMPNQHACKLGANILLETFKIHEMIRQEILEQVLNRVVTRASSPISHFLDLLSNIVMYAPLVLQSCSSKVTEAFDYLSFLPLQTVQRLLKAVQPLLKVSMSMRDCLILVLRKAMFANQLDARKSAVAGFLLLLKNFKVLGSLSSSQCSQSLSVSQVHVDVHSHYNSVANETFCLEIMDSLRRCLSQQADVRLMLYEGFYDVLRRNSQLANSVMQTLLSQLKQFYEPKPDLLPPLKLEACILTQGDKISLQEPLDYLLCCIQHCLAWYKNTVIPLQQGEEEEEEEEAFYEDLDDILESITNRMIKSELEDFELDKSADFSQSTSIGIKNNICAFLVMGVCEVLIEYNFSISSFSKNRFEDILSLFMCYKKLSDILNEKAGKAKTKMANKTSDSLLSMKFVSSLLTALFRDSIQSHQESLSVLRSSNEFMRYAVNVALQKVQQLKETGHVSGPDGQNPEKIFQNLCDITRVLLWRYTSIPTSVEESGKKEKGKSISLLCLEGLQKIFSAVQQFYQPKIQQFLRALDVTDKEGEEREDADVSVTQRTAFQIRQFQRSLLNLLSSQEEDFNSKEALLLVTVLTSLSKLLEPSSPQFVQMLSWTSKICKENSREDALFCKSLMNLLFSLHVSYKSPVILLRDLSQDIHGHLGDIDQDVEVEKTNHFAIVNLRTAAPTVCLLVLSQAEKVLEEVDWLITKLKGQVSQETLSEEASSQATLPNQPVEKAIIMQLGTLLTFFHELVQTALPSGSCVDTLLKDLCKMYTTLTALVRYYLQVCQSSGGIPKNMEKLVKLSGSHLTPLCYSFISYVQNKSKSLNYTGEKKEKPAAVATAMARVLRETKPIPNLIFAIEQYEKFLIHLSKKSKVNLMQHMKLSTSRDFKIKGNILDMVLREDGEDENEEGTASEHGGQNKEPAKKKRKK

Chain of FANCD2-6A;FANCI (Q9BXW9 whole entry S882A/T884A/S886A/S891A/T896A/S898A, chain 1 of 2): as the sequence (Q9BXW9 whole entry, chain 1 of 2) above, with S882A, T884A, S886A, S891A, T896A, S898A counted along it
Chain of FANCD2-6A;FANCI (Q9NVI1 whole entry, stated change not applied, chain 2 of 2): as the sequence (Q9NVI1 whole entry, chain 2 of 2) above

B1: ICL14 Y-shaped DNA (mixed)
DNA 1: CATTGTGAATTCGCCTCTCTGTCTAGCCGAAGCTCGAAACGATCTTGTGC
DNA 2: GTCCATCAAAGTTCGACTGTGCGGCTAGACAGAGAGGCGAATTCACAATG
FANCD2-6A;FANCI
  binding result: binds
FANCD2 WT;FANCI
  binding result: binds
